Data: article PMC9801508 (2022)
Read-outs that look alike come from different tables or passages of the source.

B1: BCL11A extended zinc finger domain (exZnF23) (domain or fragment)
chain: PPVKSKSCEFCGKTFKFQSNLVVHRRSHTGEKPYKCNLCDHACTQASKLKRHMKTHMHKSSPMTVKSDDGLSTASSPEPGTSDLVGSASSALKSVVAKFKSENDPNLIPENGD

Tests used:
[1] = molecular target: B1; assay: MST
[2] = molecular target: T1, BCL11A ZnF23 zinc finger domain; assay: MST
T1 chain: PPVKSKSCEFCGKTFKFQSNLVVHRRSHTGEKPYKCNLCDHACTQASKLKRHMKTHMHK

[3] = molecular target: B1; assay: MST
[4] = molecular target: B1

## B1
Q100L
  Kd: 224 nM
A97V
  Kd: 75.2 nM
W108R
  Kd: 56.5 nM
V102D
  Kd: 331 nM
L81F
  Kd: 1460 nM

B2: Nanobody wt2D9 (initial hit) (VHH)
VHH: QVQLVESGGGLVQAGGSLRLSCAASGSIFVNNAMGWYRQAPGKERELVAAISASGGSTYYADSVKGRFTISRDNAKNTVYLQMNSLKPEDTAVYYCAADQDVYPYEYWGQGTQVTVSS
[1]
  Kd: 1260 nM
[2]
  Kd: 32900 nM

B3: Nanobody 2D9 (2D9_V102G) (VHH)
VHH: QVQLVESGGGLVQAGGSLRLSCAASGSIFVNNAMGWYRQAPGKERELVAAISASGGSTYYADSVKGRFTISRDNAKNTVYLQMNSLKPEDTAVYYCAADQDGYPYEYWGQGTQVTVSS
[3]
  Kd: 320 nM
[4]
  Kd: 343 nM

B4: Nanobody 2D9_W108L (VHH)
VHH: QVQLVESGGGLVQAGGSLRLSCAASGSIFVNNAMGWYRQAPGKERELVAAISASGGSTYYADSVKGRFTISRDNAKNTVYLQMNSLKPEDTAVYYCAADQDVYPYEYLGQGTQVTVSS
[4]
  Kd: 23.4 nM

B5: ZF5.3-2D9 (cell-permeant nanobody) (other)
chain: QVQLVESGGGLVQAGGSLRLSCAASGSIFVNNAMGWYRQAPGKERELVAAISASGGSTYYADSVKGRFTISRDNAKNTVYLQMNSLKPEDTAVYYCAADQDGYPYEYWGQGTQVTVSS
[3]
  Kd: 674 nM
